From patent US20230050615A1 (Ablynx, published 2023)

B1: [His6Flag3-SEQ ID NO:15] (VHH)
VHH: EVQLVESGGGLVQAGGSLRLSCAASGLTFSSYAMGWFRQAPGKERERVVSISRGGGYTYYADSVKGRFTISRDNAENTVYLQMNSLKPEDTAVYYCAAARYWATGSEYEFDYWGQGTLVTVSS
notes: not shown: N-terminal His6-Flag3 tag
B2: serum albumin binder of SEQ ID NO:15 (T0235005D04, wild type) (VHH)
VHH: B1 VHH
notes: no tag is stated for these experiments

Assays:
[1] = target: T1, human serum albumin (Sigma-Aldrich A3782) (human, UniProt P02768 25-609); experiment: competition ELISA on coated human serum albumin; tracer 1.5 nM [SEQ ID NO:1-cMycHis6] detected with anti-cMyc
T1 construct: Bought protein; also called HSA; human SA

[2] = target: T2, rat serum albumin (Sigma-Aldrich A4538) (rat, UniProt P02770 25-608); experiment: SPR (ProteOn XPR36), albumin immobilised, pH 7.4
T2 construct: Bought protein; also called rat SA

[3] = target: T3, mouse serum albumin (Albumin Bioscience 2601) (mouse, UniProt P07724 25-608); experiment: SPR (ProteOn XPR36), albumin immobilised, pH 7.4
T3 construct: Bought protein; also called mouse SA

[4] = target: T4, guinea pig serum albumin (Gentaur GPSA62) (guinea pig); experiment: SPR (ProteOn XPR36), albumin immobilised, pH 7.4
T4 construct: also called guinea pig SA

[5] = target: T5, cynomolgus monkey serum albumin (generated in-house) (cynomolgus monkey, UniProt A2V9Z4 25-608, limits assumed); experiment: SPR (ProteOn XPR36), albumin immobilised, pH 7.4
T5 construct: also called cyno SA

[6] = target: T1, human serum albumin (Sigma-Aldrich …); experiment: SPR (ProteOn XPR36), albumin immobilised, pH 7.4
[7] = target: T1, human serum albumin (Sigma-Aldrich …); experiment: SPR (ProteOn), HSA immobilised, 500 nM injected, dissociation at pH 7.4
[8] = target: T1, human serum albumin (Sigma-Aldrich …); experiment: SPR (ProteOn), HSA immobilised, 500 nM injected, dissociation at pH 5.0
[9] = target: T1, human serum albumin (Sigma-Aldrich …); experiment: SPR (ProteOn), HSA immobilised, 500 nM injected, dissociation at pH 6.0

IC50 (read off the curve) [1] [nM]	Kd [2] [nM]	koff [2] [s⁻¹]	kon [2] [M⁻¹ s⁻¹]	Kd [3] [nM]	koff [3] [s⁻¹]	kon [3] [M⁻¹ s⁻¹]	Kd [4] [nM]	koff [4] [s⁻¹]	kon [4] [M⁻¹ s⁻¹]	Kd [5] [nM]	koff [5] [s⁻¹]	kon [5] [M⁻¹ s⁻¹]	Kd [6] [nM]	koff [6] [s⁻¹]	kon [6] [M⁻¹ s⁻¹]	koff [7] [s⁻¹]	koff [8] [s⁻¹]	koff [9] [s⁻¹]	Binder
~0.8	–	–	–	–	–	–	–	–	–	–	–	–	–	–	–	–	–	–	B1
–	21	0.022	1e+06	1.9	0.0024	1.2e+06	1.5	0.0021	1.4e+06	0.12	9.4e-05	770000	0.19	0.00015	810000	0.00011	5.8e-05	6.9e-05	B2
